According to the supplement of paper PMC10567573:

B1: TOR1AIP2 (parent)
chain: AGQEGEDTLRRRLLAPEAGSHPQQ

Variants of: B1
Test: protein stability index of a GFP-peptide fusion (GPS, HEK-293T) (PSI 1-6); higher = more stable
Conditions: c terminus: a fixed tail appended
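Also: lentivirally expressed fusions sorted by FACS into six bins by GFP to DsRed ratio, PSI derived from sequencing read proportions per bin multiplied by bin number.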

Point of comparison: AGQEGEDTLRRRLLAPEAGSVPQQ [H21V], protein stability index 2.1. Against it:
- AGQEGEDTLRRRLLAPEAGSHPIQ [Q23I] — lower, 1.73
- AGQEGEDTLRRRLLAPEAGSHPKQ [Q23K] — higher, 2.74
- AGQEGEDTLRRRLLAPEAGSHPMQ [Q23M] — higher, 2.24
- AGQEGEDTLRRRLLAPEAGSHPDQ [Q23D] — higher, 2.75
- AGQEGEDTLRRRLLAPEAGSHPLQ [Q23L] — higher, 2.45
- AGQEGEDTLRRRLLAPEAGSHPRQ [Q23R] — higher, 2.54
- AGQEGEDTLRRRLLAPEAGSHPVQ [Q23V] — higher, 2.69
- AGQEGEDTLRRRLLAPEAGSHPTQ [Q23T] — lower, 1.61
- AGQEGEDTLRRRLLAPEAGSHPPQ [Q23P] — higher, 3.1
- AGQEGEDTLRRRLLAPEAGSHPNQ [Q23N] — higher, 2.17
- AGQEGEDTLRRRLLAPEAGSHPWQ [Q23W] — lower, 1.81
- AGQEGEDTLRRRLLAPEAGSHPGQ [Q23G] — lower, 1.78
- AGQEGEDTLRRRLLAPEAGSHPYQ [Q23Y] — lower, 2.01
- AGQEGEDTLRRRLLAPEAGSHPCQ [Q23C] — higher, 2.54
- AGQEGEDTLRRRLLAPEAGSHPHQ [Q23H] — lower, 2.01
- AGQEGEDTLRRRLLAPEAGSHPEQ [Q23E] — higher, 2.18
- AGQEGEDTLRRRLLAPEAGSHPAQ [Q23A] — higher, 2.36
- AGQEGEDTLRRRLLAPEAGSHPSQ [Q23S] — lower, 1.85
- AGQEGEDTLRRRLLAPGAGSHPQQ [E17G] — higher, 3.5
- AGQEGEDTLRRRLLAPPAGSHPQQ [E17P] — higher, 5.13
- AGQEGEDTLRRRLLAPKAGSHPQQ [E17K] — higher, 3.86
- AGQEGEDTLRRRLLAPNAGSHPQQ [E17N] — higher, 3.16
- AGQEGEDTLRRRLLAPCAGSHPQQ [E17C] — higher, 3.65
- AGQEGEDTLRRRLLAPYAGSHPQQ [E17Y] — higher, 2.44
- AGQEGEDTLRRRLLAPLAGSHPQQ [E17L] — higher, 2.13
- AGQEGEDTLRRRLLAPDAGSHPQQ [E17D] — higher, 2.2
- AGQEGEDTLRRRLLAPHAGSHPQQ [E17H] — higher, 3.34
- AGQEGEDTLRRRLLAPRAGSHPQQ [E17R] — higher, 4.68
- AGQEGEDTLRRRLLAPMAGSHPQQ [E17M] — higher, 2.79
- AGQEGEDTLRRRLLAPQAGSHPQQ [E17Q] — higher, 2.63
- AGQEGEDTLRRRLLAPSAGSHPQQ [E17S] — higher, 4.34
- AGQEGEDTLRRRLLAPTAGSHPQQ [E17T] — higher, 4.53
- AGQEGEDTLRRRLLAPVAGSHPQQ [E17V] — higher, 4.57
- AGQEGEDTLRRRLLAPIAGSHPQQ [E17I] — higher, 4.11
- AGQEGEDTLRRRLLAPFAGSHPQQ [E17F] — higher, 3.31
- AGQEGEDTLRRRLLAPEAGSRPQQ [H21R] — higher, 2.14
- AGQEGEDTLRRRLLAPEAGSYPQQ [H21Y] — lower, 1.85
- AGQEGEDTLRRRLLAPEAGSWPQQ [H21W] — higher, 2.6
- AGQEGEDTLRRRLLAPEAGSEPQQ [H21E] — lower, 1.73
- AGQEGEDTLRRRLLAPEAGSIPQQ [H21I] — higher, 2.96
- AGQEGEDTLRRRLLAPEAGSQPQQ [H21Q] — higher, 2.7
- AGQEGEDTLRRRLLAPEAGSDPQQ [H21D] — higher, 3.73
- AGQEGEDTLRRRLLAPEAGSFPQQ [H21F] — lower, 2.02
- AGQEGEDTLRRRLLAPEAGSSPQQ [H21S] — higher, 2.76
- AGQEGEDTLRRRLLAPEAGSLPQQ [H21L] — higher, 2.27
- AGQEGEDTLRRRLLAPEAGSNPQQ [H21N] — higher, 2.69
- AGQEGEDTLRRRLLAPEAGSMPQQ [H21M] — lower, 1.88
- AGQEGEDTLRRRLLAPEAGSCPQQ [H21C] — higher, 2.69
- AGQEGEDTLRRRLLAPEAGSPPQQ [H21P] — higher, 2.82
- AGQEGEDTLRRRLLAPEAGSKPQQ [H21K] — higher, 2.58
- AGQEGEDTLRRRLLAPEAGSAPQQ [H21A] — higher, 2.53
- AGQEGEDTLRRRLLAPEAGSTPQQ [H21T] — higher, 2.26
- AGQEGEDTLRRRLLAPEAGSGPQQ [H21G] — higher, 2.47
- AGQEGEDTLRRRLLAPEARSHPQQ [G19R] — higher, 2.49
- AGQEGEDTLRRRLLAPEAPSHPQQ [G19P] — higher, 2.69
- AGQEGEDTLRRRLLAPEALSHPQQ [G19L] — lower, 1.72
- AGQEGEDTLRRRLLAPEAFSHPQQ [G19F] — lower, 1.86
- AGQEGEDTLRRRLLAPEAMSHPQQ [G19M] — higher, 3
- AGQEGEDTLRRRLLAPEANSHPQQ [G19N] — higher, 2.27
- AGQEGEDTLRRRLLAPEAKSHPQQ [G19K] — lower, 1.86
- AGQEGEDTLRRRLLAPEAQSHPQQ [G19Q] — higher, 2.13
- AGQEGEDTLRRRLLAPEAYSHPQQ [G19Y] — lower, 1.75
- AGQEGEDTLRRRLLAPEATSHPQQ [G19T] — higher, 2.58
- AGQEGEDTLRRRLLAPEAWSHPQQ [G19W] — lower, 1.31
- AGQEGEDTLRRRLLAPEACSHPQQ [G19C] — higher, 2.15
- AGQEGEDTLRRRLLAPEAHSHPQQ [G19H] — higher, 2.22
- AGQEGEDTLRRRLLAPEAISHPQQ [G19I] — higher, 2.54
- AGQEGEDTLRRRLLAPEAASHPQQ [G19A] — higher, 2.23
- AGQEGEDTLRRRLLAPEAESHPQQ [G19E] — higher, 2.15
- AGQEGEDTLRRRLLAPEAVSHPQQ [G19V] — higher, 2.37
- AGQEGEDTLRRRLLAPEADSHPQQ [G19D] — higher, 2.83
- AGQEGEDTLRRRLLAPEAGSHMQQ [P22M] — higher, 2.67
- AGQEGEDTLRRRLLAPEAGSHWQQ [P22W] — lower, 1.94
- AGQEGEDTLRRRLLAPEAGSHTQQ [P22T] — lower, 1.87
- AGQEGEDTLRRRLLAPEAGSHQQQ [P22Q] — higher, 2.34
- AGQEGEDTLRRRLLAPEAGSHSQQ [P22S] — lower, 1.81
- AGQEGEDTLRRRLLAPEAGSHNQQ [P22N] — higher, 3.24
- AGQEGEDTLRRRLLAPEAGSHVQQ [P22V] — higher, 2.4
- AGQEGEDTLRRRLLAPEAGSHFQQ [P22F] — higher, 2.31
- AGQEGEDTLRRRLLAPEAGSHDQQ [P22D] — higher, 2.6
- AGQEGEDTLRRRLLAPEAGSHIQQ [P22I] — higher, 2.56
- AGQEGEDTLRRRLLAPEAGSHRQQ [P22R] — lower, 2.04
- AGQEGEDTLRRRLLAPEAGSHLQQ [P22L] — higher, 2.14
- AGQEGEDTLRRRLLAPEAGSHGQQ [P22G] — higher, 2.44
- AGQEGEDTLRRRLLAPEAGSHEQQ [P22E] — higher, 2.66
- AGQEGEDTLRRRLLAPEAGSHHQQ [P22H] — lower, 1.65
- AGQEGEDTLRRRLLAPEAGSHCQQ [P22C] — higher, 2.43
- AGQEGEDTLRRRLLAPEAGSHAQQ [P22A] — higher, 2.58
- AGQEGEDTLRRRLLAPEAGSHKQQ [P22K] — higher, 2.44
- AGQEGEDTLRRRLLAPEAGSHYQQ [P22Y] — lower, 1.52
- AGQEGEDTLRRRLLAPEGGSHPQQ [A18G] — higher, 3.92
- AGQEGEDTLRRRLLAPEVGSHPQQ [A18V] — higher, 2.75
- AGQEGEDTLRRRLLAPETGSHPQQ [A18T] — higher, 3.11
